The values below come from doi:10.1101/208041.

First the molecules themselves.
T1: dMpAgo (catalytically inactive MpAgo) (Marinitoga piezophila, UniProt H2J4R4 1-639, D446A)
T1 sequence: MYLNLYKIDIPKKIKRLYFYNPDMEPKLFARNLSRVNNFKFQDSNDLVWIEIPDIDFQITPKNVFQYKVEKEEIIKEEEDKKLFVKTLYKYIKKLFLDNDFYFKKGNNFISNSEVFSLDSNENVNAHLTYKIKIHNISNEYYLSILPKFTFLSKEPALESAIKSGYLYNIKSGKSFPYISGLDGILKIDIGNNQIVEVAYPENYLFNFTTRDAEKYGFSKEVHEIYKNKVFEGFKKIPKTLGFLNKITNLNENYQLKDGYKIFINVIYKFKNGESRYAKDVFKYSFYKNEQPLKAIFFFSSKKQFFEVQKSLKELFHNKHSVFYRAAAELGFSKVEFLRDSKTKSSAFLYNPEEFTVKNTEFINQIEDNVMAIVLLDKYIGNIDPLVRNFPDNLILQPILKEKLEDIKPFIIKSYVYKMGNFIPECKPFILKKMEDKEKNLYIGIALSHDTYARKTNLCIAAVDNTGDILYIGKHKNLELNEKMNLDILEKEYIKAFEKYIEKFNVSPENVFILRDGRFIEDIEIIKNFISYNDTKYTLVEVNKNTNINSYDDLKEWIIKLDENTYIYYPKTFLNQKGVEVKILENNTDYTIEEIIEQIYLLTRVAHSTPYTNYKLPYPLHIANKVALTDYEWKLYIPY

T2: dMpAgo (catalytically inactive MpAgo) D446A (Marinitoga piezophila) (UniProt H2J4R4)
T2 sequence: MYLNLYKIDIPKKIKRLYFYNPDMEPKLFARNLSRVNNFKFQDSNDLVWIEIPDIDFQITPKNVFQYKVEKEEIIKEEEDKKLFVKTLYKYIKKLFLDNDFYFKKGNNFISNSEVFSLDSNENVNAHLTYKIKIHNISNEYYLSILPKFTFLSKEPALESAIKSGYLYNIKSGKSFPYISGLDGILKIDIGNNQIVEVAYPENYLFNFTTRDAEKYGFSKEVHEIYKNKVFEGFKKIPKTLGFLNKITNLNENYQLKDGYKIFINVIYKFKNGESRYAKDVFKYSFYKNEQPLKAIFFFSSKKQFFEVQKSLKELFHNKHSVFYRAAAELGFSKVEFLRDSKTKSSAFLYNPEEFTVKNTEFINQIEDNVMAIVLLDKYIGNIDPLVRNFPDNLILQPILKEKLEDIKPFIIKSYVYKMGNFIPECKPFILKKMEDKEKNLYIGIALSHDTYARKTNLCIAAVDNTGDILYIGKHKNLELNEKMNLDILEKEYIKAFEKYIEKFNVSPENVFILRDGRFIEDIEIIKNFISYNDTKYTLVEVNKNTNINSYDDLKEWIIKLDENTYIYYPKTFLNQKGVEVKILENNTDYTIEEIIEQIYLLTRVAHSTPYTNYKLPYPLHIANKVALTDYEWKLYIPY

T3: MpAgo WT (Marinitoga piezophila, UniProt H2J4R4 1-639)
T3 sequence: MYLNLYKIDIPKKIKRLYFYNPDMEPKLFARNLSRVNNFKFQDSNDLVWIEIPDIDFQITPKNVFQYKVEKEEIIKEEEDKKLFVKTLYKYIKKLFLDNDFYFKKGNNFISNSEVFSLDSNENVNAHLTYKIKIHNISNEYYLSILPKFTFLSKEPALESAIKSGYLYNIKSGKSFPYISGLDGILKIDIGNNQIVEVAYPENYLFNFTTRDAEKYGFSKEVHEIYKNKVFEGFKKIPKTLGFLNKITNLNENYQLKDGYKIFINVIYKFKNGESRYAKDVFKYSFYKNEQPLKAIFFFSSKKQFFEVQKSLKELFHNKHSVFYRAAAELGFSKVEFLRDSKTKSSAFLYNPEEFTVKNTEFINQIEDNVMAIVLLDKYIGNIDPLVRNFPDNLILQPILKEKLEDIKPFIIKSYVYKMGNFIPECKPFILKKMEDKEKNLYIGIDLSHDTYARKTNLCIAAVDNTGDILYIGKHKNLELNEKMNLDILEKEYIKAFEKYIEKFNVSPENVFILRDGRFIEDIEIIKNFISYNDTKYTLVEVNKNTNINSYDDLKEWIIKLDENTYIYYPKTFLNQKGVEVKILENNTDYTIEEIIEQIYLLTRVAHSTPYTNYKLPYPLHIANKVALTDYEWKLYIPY

B1: A6 guide / mm5 (mixed)
RNA 1: UGCGGAUGCCAUAUGCAACUU
RNA 2: GGCAGCAUUCAACCAUAUGGCAUACGCAUACAGCCAAG
modifications: BrdU at guide 1
B2: A6 guide / mm12 (mixed)
RNA 1: UGCGGAUGCCAUAUGCAACUU
RNA 2: GGCAGCAUUCAACCAUCUGGCAUCCGCAUACAGCCAAG
modifications: BrdU at guide 1
B3: A6 guide / mm10 (mixed)
RNA 1: UGCGGAUGCCAUAUGCAACUU
RNA 2: GGCAGCAUUCAACCAUAUUGCAUCCGCAUACAGCCAAG
modifications: BrdU at guide 1
B4: A6 guide / mm4 (mixed)
RNA 1: UGCGGAUGCCAUAUGCAACUU
RNA 2: GGCAGCAUUCAACCAUAUGGCAUCAGCAUACAGCCAAG
modifications: BrdU at guide 1
B5: A6 guide / mm3 (mixed)
RNA 1: UGCGGAUGCCAUAUGCAACUU
RNA 2: GGCAGCAUUCAACCAUAUGGCAUCCUCAUACAGCCAAG
modifications: BrdU at guide 1
B6: A6 guide / mm8 (mixed)
RNA 1: UGCGGAUGCCAUAUGCAACUU
RNA 2: GGCAGCAUUCAACCAUAUGGAAUCCGCAUACAGCCAAG
modifications: BrdU at guide 1
B7: A6 guide / mm11 (mixed)
RNA 1: UGCGGAUGCCAUAUGCAACUU
RNA 2: GGCAGCAUUCAACCAUAGGGCAUCCGCAUACAGCCAAG
modifications: BrdU at guide 1
B8: A6 guide / mm2 (mixed)
RNA 1: UGCGGAUGCCAUAUGCAACUU
RNA 2: GGCAGCAUUCAACCAUAUGGCAUCCGAAUACAGCCAAG
modifications: BrdU at guide 1
B9: A6 guide / mm7 (mixed)
RNA 1: UGCGGAUGCCAUAUGCAACUU
RNA 2: GGCAGCAUUCAACCAUAUGGCCUCCGCAUACAGCCAAG
modifications: BrdU at guide 1
B10: BrdU guide / 18-nt target (mixed)
RNA 1: UAUACAACCUACUACCUCAUU
RNA 2: GGACUAUGUAGAUCUAUAAUUAGAGGUAGUAGGUUGUAUCUCAGGAGGUC
modifications: BrdU at guide 1
B11: BrdU guide / 15-nt target (mixed)
RNA 1: UAUACAACCUACUACCUCAUU
RNA 2: GGACUAUGUAGAUCUAUAAUUACUCGUAGUAGGUUGUAUCUCAGGAGGUC
modifications: BrdU at guide 1
B12: G7 guide / C target (mixed)
RNA 1: UAGCGGGUGCCAUAUCCAACU
RNA 2: GGCAGCAUUCAACCAUAUGGCACCCGCAUACAGCCAAG
modifications: BrdU at guide 1
B13: C7 guide / G target (mixed)
RNA 1: UAGCGGCUGCCAUAUCCAACU
RNA 2: GGCAGCAUUCAACCAUAUGGCAGCCGCAUACAGCCAAG
modifications: BrdU at guide 1
B14: A7 guide / U target (mixed)
RNA 1: UAGCGGAUGCCAUAUCCAACU
RNA 2: GGCAGCAUUCAACCAUAUGGCAUCCGCAUACAGCCAAG
modifications: BrdU at guide 1
B15: U6 guide / A target (mixed)
RNA 1: UGCGGUUGCCAUAUGCAACUU
RNA 2: GGCAGCAUUCAACCAUAUGGCAACCGCAUACAGCCAAG
modifications: BrdU at guide 1
B16: U7 guide / A target (mixed)
RNA 1: UAGCGGUUGCCAUAUCCAACU
RNA 2: GGCAGCAUUCAACCAUAUGGCAACCGCAUACAGCCAAG
modifications: BrdU at guide 1
B17: rA guide / ON target (mixed)
RNA 1: AAUACAACCUACUACCUCAUU
RNA 2: GGACUAUGAUCUAGAUAUUAAUGAGGUAGUAGGUUGUAUCUCAGGAGGUC
B18: rU guide / ON target (mixed)
RNA 1: UAUACAACCUACUACCUCAUU
RNA 2: GGACUAUGAUCUAGAUAUUAAUGAGGUAGUAGGUUGUAUCUCAGGAGGUC
B19: rC guide / ON target (mixed)
RNA 1: CAUACAACCUACUACCUCAUU
RNA 2: GGACUAUGAUCUAGAUAUUAAUGAGGUAGUAGGUUGUAUCUCAGGAGGUC
B20: dU guide / ON target (mixed)
RNA 1: UAUACAACCUACUACCUCAUU
RNA 2: GGACUAUGAUCUAGAUAUUAAUGAGGUAGUAGGUUGUAUCUCAGGAGGUC
modifications: dU at guide 1
B21: rA guide / OFF target (mixed)
RNA 1: AAUACAACCUACUACCUCAUU
RNA 2: GUUAUGUGUGUGAUUAUAUUUGUUCCAGUUCCUGUGUAAUAGACAUGGAA
B22: dU guide / OFF target (mixed)
RNA 1: UAUACAACCUACUACCUCAUU
RNA 2: GUUAUGUGUGUGAUUAUAUUUGUUCCAGUUCCUGUGUAAUAGACAUGGAA
modifications: dU at guide 1
B23: rC guide / OFF target (mixed)
RNA 1: CAUACAACCUACUACCUCAUU
RNA 2: GUUAUGUGUGUGAUUAUAUUUGUUCCAGUUCCUGUGUAAUAGACAUGGAA
B24: rU guide / OFF target (mixed)
RNA 1: UAUACAACCUACUACCUCAUU
RNA 2: GUUAUGUGUGUGAUUAUAUUUGUUCCAGUUCCUGUGUAAUAGACAUGGAA
B25: A7 guide / mm3 (mixed)
RNA 1: UAGCGGAUGCCAUAUCCAACU
RNA 2: GGCAGCAUUCAACCAUAUGGCAUCCGAAUACAGCCAAG
modifications: BrdU at guide 1
B26: A7 guide / G target (mm7) (mixed)
RNA 1: UAGCGGAUGCCAUAUCCAACU
RNA 2: GGCAGCAUUCAACCAUAUGGCAGCCGCAUACAGCCAAG
modifications: BrdU at guide 1
B27: gRNA 5'-rA (ssRNA)
RNA: AAUACAACCUACUACCUCAUU
modifications: 5'-OH
B28: gRNA 5'-rC (ssRNA)
RNA: CAUACAACCUACUACCUCAUU
modifications: 5'-OH
B29: gRNA 5'-rU (ssRNA)
RNA: UAUACAACCUACUACCUCAUU
modifications: 5'-OH

The target of the first data set is T1, dMpAgo (catalytically inactive MpAgo). The data set is described as follows: filter binding.
Conditions: not given
For the molecule B1, the binding signal was > 5 fold Kd vs complementary.

As to B2, the binding signal is > 5 fold Kd vs complementary.

B3: the binding signal was > 5 fold Kd vs complementary.

Regarding B4, the binding signal is > 5 fold Kd vs complementary.

For B5, the binding signal was > 5 fold Kd vs complementary.

For the molecule B6, the binding signal is > 5 fold Kd vs complementary.

Take B7: the binding signal was > 5 fold Kd vs complementary.

B8: the binding signal was > 5 fold Kd vs complementary.

Regarding B9, the binding signal was > 5 fold Kd vs complementary.

A further data set shares this target. The data set is described as follows: filter binding.
Conditions: not given
The source holds these as a separate data set.
In the case of B10, the dissociation constant Kd (as a rule, the equilibrium constant for the complex coming apart) turned out to be 0.107 ± 0.006 nM.

B11: the Kd stood at 0.083 ± 0.008 nM.

The target is the same in another data set. Kind of data set: filter binding.
Conditions: not given
The source holds these as a separate data set.
On to B12, for which the binding result was “binds”.

B13: the binding result is listed as “binds”.

As to B14, the binding result is “binds”.

Consider B15, for which the binding result is given as “binds”.

On to B16, for which the binding result is listed as “binds”.

For the next data set the target is unchanged. The data set is described as follows: filter binding.
Conditions: not given
The source holds these as a separate data set.
Molecule B17 registered an equilibrium dissociation constant (Kd) of 12 ± 2 nM.

For B18, the Kd was found to be 5 ± 0.8 nM.

Molecule B19 gave a Kd of 4.6 ± 0.5 nM.

Take B20: the dissociation constant Kd was 0.5 ± 0.067 nM.

As for B21, the dissociation constant Kd is 112 ± 19 nM.

Regarding B22, the binding result is given as “no binding”.

B23 gave a Kd of 112 ± 18 nM.

Molecule B24 displayed a dissociation constant (Kd) of 359 ± 37 nM.

The target of another data set is T2, dMpAgo (catalytically inactive MpAgo) D446A (Marinitoga piezophila). Kind of data set: filter binding. As to conditions: BrdU at guide 1; N = inosine at target 23.
“UGCGGAUGCCAUAUGCAACUU / GGCAGCAUUCAACCAUAUGGCANCCGCAUACAGCCAAG [A6 guide / I target]” gave a binding signal of 19 % bound.

The same data set, now with this note: BrdU at guide 1; internal desthiobiotin-TEG before last AA.
Regarding “UAUUGUGACAAGAAUGCUGUUAAAAAAAAAAA / GGCAGCAUUCAACAUUCUAGUCACAAUAUACAGCCAAG [32-nt guide / mm10]”, the binding signal (fold Kd vs complementary) is > 5.

In the case of “UAUUGUGACAAGAAUGCUGUUAAAAAAAAAAA / GGCAGCAUUCAACAUUGUUGUCACAAUAUACAGCCAAG [32-nt guide / mm12]”, the binding signal (fold Kd vs complementary) is > 5.

Another data set concerns the target T1, dMpAgo (catalytically inactive MpAgo). Kind of data set: filter binding.
Conditions: not given
This is another data set of the same source.
In the case of B25, the binding signal turned out to be 32 fold Kd vs complementary.

In turn, B26 yielded a binding signal of 301 fold Kd vs complementary.

The next data set has as its target T3, MpAgo WT. Kind of data set: filter binding.
Conditions: not given
The molecule B27 came in with a dissociation constant (Kd) of 73 ± 10 nM.

For B28, the equilibrium dissociation constant (Kd) was 104 ± 9 nM.

Molecule B29 gave a dissociation constant Kd of 81 ± 9 nM.
